According to PMC11203576:

Biological target: SARS-CoV-2 spike protein RBD, original (wild-type), sfGFP fusion (SARS-CoV-2) (UniProt P0DTC2)
Experiment: SPR; Biacore T200; […] (0.01 M HEPES, 0.15 M NaCl, 3 mM EDTA, 0.05% surfactant P20, […]

Work on Jacalin (natural protein) yielded a Kd of 428 nM.
